Laboratory results as given in article PMC2777448 (Nucleic Acids Research, 2009).

Tests used:
Test in all cases: pull-down
(His)9-tagged srs2 1–890 = molecular target: T1, (His)9-tagged srs2 1–890 (S. cerevisiae, UniProt P12954 1-890)
T1 sequence: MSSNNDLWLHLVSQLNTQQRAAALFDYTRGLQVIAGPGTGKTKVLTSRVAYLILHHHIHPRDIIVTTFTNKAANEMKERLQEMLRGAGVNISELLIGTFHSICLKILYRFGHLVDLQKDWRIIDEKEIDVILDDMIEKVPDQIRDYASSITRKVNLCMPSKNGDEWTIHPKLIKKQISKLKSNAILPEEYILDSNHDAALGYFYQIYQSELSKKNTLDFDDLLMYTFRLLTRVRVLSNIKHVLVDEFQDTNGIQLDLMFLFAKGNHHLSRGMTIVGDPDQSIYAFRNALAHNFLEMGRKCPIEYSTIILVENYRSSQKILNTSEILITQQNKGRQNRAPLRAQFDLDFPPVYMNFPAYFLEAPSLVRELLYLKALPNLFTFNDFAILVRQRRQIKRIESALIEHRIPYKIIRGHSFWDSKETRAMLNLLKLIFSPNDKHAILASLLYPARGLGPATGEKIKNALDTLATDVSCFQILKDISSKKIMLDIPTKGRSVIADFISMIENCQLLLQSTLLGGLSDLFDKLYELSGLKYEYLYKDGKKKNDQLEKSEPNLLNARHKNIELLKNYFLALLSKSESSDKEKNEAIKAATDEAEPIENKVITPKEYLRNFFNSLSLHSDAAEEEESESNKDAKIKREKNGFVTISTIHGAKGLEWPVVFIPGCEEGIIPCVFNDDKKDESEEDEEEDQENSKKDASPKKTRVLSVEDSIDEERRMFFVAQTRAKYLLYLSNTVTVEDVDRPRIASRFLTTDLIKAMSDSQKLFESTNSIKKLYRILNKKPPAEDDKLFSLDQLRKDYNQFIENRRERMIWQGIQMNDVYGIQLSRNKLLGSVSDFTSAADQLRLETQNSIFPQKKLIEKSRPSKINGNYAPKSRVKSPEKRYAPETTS

[1] = molecular target: T2, (His)9-tagged full length Srs2 (S. cerevisiae, UniProt P12954 1-1174)
T2 sequence: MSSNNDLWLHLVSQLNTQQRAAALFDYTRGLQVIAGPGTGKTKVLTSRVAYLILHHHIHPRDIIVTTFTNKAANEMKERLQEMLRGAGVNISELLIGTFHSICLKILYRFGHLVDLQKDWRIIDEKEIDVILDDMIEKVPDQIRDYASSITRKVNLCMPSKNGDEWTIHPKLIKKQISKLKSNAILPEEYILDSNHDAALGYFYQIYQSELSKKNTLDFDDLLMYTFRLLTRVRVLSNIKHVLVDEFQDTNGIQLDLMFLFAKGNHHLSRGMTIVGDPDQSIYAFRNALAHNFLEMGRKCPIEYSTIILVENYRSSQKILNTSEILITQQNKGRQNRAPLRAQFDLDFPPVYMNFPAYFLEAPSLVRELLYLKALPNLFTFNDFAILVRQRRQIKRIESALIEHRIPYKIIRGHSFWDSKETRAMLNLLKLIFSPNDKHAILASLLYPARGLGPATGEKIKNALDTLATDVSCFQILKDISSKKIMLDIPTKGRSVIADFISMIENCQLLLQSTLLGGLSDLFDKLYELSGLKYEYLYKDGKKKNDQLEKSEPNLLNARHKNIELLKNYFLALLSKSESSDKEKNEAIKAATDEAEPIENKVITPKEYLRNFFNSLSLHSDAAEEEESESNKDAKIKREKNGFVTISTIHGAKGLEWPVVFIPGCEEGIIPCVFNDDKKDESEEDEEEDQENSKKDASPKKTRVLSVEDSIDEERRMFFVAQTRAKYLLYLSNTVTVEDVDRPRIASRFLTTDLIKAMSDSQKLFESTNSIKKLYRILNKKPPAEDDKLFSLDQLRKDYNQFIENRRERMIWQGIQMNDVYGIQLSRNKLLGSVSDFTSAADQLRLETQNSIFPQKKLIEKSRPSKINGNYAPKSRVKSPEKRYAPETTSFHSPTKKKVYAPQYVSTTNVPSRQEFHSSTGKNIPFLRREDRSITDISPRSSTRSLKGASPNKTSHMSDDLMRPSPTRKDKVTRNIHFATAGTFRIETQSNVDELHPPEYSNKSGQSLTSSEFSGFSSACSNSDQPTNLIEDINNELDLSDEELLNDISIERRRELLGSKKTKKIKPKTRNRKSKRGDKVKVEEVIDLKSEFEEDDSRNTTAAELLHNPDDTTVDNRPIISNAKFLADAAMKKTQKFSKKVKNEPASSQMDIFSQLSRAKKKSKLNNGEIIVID

(His)9-tagged srs2 1–910 = molecular target: T3, (His)9-tagged srs2 1–910 (S. cerevisiae, UniProt P12954 1-910)
T3 sequence: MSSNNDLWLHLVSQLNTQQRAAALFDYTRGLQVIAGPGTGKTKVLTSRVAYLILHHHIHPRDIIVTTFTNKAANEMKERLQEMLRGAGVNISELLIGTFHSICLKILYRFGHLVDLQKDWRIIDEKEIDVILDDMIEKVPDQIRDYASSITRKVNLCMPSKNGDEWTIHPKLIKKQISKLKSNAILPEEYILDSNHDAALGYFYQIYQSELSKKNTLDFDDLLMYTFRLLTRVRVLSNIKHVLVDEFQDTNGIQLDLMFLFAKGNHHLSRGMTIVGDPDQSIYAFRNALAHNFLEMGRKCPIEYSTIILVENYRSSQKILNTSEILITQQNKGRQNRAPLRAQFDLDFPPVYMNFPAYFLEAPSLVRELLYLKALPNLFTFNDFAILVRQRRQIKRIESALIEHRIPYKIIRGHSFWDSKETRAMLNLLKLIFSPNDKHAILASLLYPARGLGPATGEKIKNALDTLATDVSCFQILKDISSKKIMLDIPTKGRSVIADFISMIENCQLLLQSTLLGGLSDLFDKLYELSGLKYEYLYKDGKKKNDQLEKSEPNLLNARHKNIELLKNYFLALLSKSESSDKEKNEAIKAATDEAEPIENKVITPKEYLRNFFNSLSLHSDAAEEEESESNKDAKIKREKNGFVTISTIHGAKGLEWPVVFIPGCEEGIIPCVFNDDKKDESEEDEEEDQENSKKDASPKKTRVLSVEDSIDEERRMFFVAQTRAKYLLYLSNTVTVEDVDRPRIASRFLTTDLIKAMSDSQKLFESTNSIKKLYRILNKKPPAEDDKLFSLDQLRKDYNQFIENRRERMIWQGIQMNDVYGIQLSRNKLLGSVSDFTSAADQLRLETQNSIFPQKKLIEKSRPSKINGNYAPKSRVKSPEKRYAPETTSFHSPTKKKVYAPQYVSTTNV

(His)9-tagged srs2 1–998 = molecular target: T4, (His)9-tagged srs2 1–998 (S. cerevisiae, UniProt P12954 1-998)
T4 sequence: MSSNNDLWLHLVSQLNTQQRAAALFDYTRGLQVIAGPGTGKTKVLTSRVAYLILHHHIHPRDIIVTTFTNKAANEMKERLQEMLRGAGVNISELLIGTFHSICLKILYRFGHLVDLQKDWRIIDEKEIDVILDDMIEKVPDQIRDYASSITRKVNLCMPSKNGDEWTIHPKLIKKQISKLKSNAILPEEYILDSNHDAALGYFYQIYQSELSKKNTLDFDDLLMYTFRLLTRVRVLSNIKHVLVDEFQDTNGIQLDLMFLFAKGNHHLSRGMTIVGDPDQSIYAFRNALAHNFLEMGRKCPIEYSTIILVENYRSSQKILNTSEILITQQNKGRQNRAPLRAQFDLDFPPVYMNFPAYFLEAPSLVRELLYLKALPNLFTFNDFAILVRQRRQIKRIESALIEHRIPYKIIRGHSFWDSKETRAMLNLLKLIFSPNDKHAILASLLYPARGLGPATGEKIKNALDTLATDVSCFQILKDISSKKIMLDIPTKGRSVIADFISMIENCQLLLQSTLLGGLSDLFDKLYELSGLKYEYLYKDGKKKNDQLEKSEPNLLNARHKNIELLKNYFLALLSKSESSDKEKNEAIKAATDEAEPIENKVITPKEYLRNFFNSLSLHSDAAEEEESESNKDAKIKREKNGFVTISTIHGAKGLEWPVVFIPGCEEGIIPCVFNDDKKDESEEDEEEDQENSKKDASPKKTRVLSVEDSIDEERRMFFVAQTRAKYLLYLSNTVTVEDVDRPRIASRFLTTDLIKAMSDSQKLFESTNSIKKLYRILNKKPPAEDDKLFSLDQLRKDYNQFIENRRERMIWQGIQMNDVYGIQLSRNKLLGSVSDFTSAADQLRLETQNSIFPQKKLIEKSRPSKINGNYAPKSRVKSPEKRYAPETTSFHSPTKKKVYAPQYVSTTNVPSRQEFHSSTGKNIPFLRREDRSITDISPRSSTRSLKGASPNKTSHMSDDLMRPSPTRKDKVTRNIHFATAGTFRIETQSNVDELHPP

Measured: binding result

B1: Rad51 (natural protein)
chain: MSQVQEQHISESQLQYGNGSLMSTVPADLSQSVVDGNGNGSSEDIEATNGSGDGGGLQEQAEAQGEMEDEAYDEAALGSFVPIEKLQVNGITMADVKKLRESGLHTAEAVAYAPRKDLLEIKGISEAKADKLLNEAARLVPMGFVTAADFHMRRSELICLTTGSKNLDTLLGGGVETGSITELFGEFRTGKSQLCHTLAVTCQIPLDIGGGEGKCLYIDTEGTFRPVRLVSIAQRFGLDPDDALNNVAYARAYNADHQLRLLDAAAQMMSESRFSLIVVDSVMALYRTDFSGRGELSARQMHLAKFMRALQRLADQFGVAVVVTNQVVAQVDGGMAFNPDPKKPIGGNIMAHSSTTRLGFKKGKGCQRLCKVVDSPCLPEAECVFAIYEDGVGDPREEDE
binds: all assays above
